# Experimental data from patent US20220033784A1 (priority 2020, published 2022).
# Read-outs that look alike come from different tables or passages of the source.
# T1: mouse intermediate-affinity IL-2R (IL-2Rβ + IL-2Rγ) on murine splenocytes (CD8+ T cells and NK cells) (mouse) (UniProt P16297)
# T1 sequence 1: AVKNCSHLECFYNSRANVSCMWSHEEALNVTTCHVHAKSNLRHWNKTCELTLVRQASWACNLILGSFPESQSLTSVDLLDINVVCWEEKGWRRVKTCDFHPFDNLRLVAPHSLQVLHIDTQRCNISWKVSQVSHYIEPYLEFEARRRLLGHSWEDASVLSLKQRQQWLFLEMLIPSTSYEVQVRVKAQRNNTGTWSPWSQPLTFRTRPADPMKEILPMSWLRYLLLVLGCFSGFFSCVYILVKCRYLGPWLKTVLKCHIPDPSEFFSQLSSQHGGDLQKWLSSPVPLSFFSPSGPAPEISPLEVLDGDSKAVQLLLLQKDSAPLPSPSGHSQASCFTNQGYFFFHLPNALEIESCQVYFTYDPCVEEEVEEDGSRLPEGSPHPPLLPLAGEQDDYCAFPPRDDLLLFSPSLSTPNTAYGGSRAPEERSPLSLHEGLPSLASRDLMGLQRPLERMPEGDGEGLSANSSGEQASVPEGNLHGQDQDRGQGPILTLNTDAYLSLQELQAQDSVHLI
# T1 sequence 2: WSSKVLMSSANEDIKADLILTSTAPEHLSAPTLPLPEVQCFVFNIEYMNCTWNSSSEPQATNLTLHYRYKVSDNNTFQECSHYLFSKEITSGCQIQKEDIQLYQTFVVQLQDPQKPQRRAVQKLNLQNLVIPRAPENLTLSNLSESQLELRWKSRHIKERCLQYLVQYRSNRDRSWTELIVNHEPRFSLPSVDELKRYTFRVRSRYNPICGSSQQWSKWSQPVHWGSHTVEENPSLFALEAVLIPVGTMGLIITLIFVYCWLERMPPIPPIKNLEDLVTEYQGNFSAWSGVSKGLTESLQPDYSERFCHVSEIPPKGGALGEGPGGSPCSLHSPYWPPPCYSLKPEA
# T2: mouse high-affinity IL-2R (IL-2Rα/CD25 + IL-2Rβ + IL-2Rγ) on murine splenocytes (Treg cells, CD3+CD4+CD25+Foxp3+) (mouse) (UniProt P01590)
# T2 sequence 1: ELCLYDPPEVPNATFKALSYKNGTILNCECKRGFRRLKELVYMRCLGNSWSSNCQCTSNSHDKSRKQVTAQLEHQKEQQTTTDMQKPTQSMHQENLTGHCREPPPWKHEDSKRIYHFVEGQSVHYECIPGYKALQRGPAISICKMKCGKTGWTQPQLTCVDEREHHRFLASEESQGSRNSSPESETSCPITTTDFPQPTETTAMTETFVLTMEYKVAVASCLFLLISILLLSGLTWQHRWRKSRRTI
# T2 sequence 2: T1 sequence 1
# T2 sequence 3: T1 sequence 2
# T3: human high-affinity IL-2 receptor complex, IL-2 CD25/CD122/CD132 (α/β/γ), on cells (human, UniProt P01589 22-272; P14784 27-551; P31785 23-369)
# T3 sequence (looked up) 1: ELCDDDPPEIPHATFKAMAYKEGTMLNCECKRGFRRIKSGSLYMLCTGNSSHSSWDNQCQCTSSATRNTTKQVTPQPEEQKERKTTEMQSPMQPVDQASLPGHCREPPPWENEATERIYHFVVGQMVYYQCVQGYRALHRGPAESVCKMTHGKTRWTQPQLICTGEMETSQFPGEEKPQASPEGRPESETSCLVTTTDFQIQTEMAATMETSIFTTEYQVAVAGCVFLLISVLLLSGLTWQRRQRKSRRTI
# T3 sequence (looked up) 2: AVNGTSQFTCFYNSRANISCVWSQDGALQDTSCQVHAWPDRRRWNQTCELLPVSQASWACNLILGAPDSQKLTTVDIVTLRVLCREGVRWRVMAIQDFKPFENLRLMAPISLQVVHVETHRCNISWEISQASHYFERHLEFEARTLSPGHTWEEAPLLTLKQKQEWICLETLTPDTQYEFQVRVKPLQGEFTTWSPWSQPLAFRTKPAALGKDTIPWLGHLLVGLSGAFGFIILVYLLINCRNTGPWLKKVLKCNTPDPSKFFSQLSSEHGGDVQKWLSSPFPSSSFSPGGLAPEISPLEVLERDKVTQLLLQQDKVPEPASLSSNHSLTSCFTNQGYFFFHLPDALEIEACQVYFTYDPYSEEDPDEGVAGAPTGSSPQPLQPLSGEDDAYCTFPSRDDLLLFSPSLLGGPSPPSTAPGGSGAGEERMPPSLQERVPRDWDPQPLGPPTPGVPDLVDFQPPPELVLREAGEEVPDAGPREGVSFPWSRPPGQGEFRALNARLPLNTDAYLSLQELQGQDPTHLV
# T3 sequence (looked up) 3: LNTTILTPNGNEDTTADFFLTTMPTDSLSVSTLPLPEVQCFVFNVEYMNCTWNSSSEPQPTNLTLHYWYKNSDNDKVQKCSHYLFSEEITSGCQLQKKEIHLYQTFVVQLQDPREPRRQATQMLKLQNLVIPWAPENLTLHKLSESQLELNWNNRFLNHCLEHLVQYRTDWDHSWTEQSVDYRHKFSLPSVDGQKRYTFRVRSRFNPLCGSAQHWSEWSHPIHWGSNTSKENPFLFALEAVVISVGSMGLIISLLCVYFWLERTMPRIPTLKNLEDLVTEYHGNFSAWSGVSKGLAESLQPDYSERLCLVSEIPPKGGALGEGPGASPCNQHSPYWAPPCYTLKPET
# T4: human intermediate-affinity IL-2 receptor complex, IL-2 CD122/CD132 (β/γ), on cells (human, UniProt P14784 27-551; P31785 23-369)
# T4 sequence (looked up) 1: T3 sequence (looked up) 2
# T4 sequence (looked up) 2: T3 sequence (looked up) 3
# B1: Fc-IL2v (Fc fusion)
# chain: GGGGSGGGGSAPASSSTKKTQLQLEHLLLDLQMILNGINNYKNPKLTRMLTAKFAMPKKATELKHLQCLEEELKPLEEVLNGAQSKNFHLRPRDLISNINVIVLELKGSETTFMCEYADETATIVEFLNRWITFAQSIISTLT
# What was measured:
# [1] = molecular target: T1, mouse intermediate-affinity IL-2R (IL-2Rβ + IL-2Rγ) on murine splenocytes (CD8+ T cells and NK cells) (mouse)
# [2] = molecular target: T1, mouse intermediate-affinity IL-2R (IL-2Rβ + IL-2Rγ) on murine splenocytes (CD8+ T cells and NK cells) (mouse); remark: listed apart in the source
# [3] = molecular target: T2, mouse high-affinity IL-2R (IL-2Rα/CD25 + IL-2Rβ + IL-2Rγ) on murine splenocytes (Treg cells, CD3+CD4+CD25+Foxp3+) (mouse)
# [4] = molecular target: human intermediate-affinity IL-2 receptor complex, IL-2 CD122/CD132 (β/γ), on cells (human) (UniProt P14784)
# [5] = molecular target: human high-affinity IL-2 receptor complex, IL-2 CD25/CD122/CD132 (α/β/γ), on cells (human) (UniProt P01589)
# [6] = molecular target: T3, human high-affinity IL-2 receptor …; test: cell-based or functional assay
# [7] = molecular target: T3, human high-affinity IL-2 receptor …; test: cell-based or functional assay; remark: listed apart in the source
# [8] = molecular target: T4, human intermediate-affinity IL-2 …; test: cell-based or functional assay
# [9] = molecular target: T3, human high-affinity IL-2 receptor …; test: cell-based or functional assay; remark: listed apart in the source
# [10] = molecular target: T4, human intermediate-affinity IL-2 …; test: cell-based or functional assay; remark: listed apart in the source
# [11] = molecular target: T3, human high-affinity IL-2 receptor …; test: cell-based or functional assay; remark: listed apart in the source
# [12] = molecular target: T4, human intermediate-affinity IL-2 …; test: cell-based or functional assay; remark: listed apart in the source
# [13] = molecular target: T4, human intermediate-affinity IL-2 …; test: cell-based or functional assay; remark: listed apart in the source
# [14] = molecular target: T3, human high-affinity IL-2 receptor …; test: cell-based or functional assay; remark: listed apart in the source
# [15] = molecular target: T4, human intermediate-affinity IL-2 …; test: cell-based or functional assay; remark: listed apart in the source
molecule,measurement,setting,value
"human IL-2 variant hIL-2v (F42A, Y45A, L72G), secreted by virus-infected HeLa cells (from UniProt P60568 21-153) (ligand)","EC50 (read off the curve), pSTAT5 MFI, murine splenocyte CD8 T cells",[1],100 ng/mL
same,"EC50 (read off the curve), pSTAT5 MFI, murine splenocyte NK cells",[2],20 ng/mL
same,"EC50 (read off the curve), pSTAT5 MFI, murine splenocyte Treg cells",[3],70 ng/mL
Fc-IL2-R38N:L40T-T41N:K43T (from UniProt P01857-1) (Fc fusion),"EC50 (read off the curve), pSTAT5 MFI in NK cells of hPBMC",[4],6 nM
same,"EC50 (read off the curve), pSTAT5 MFI in Treg cells of hPBMC",[5],20 nM
B1,"EC50 (read off the curve), pSTAT5 MFI in Treg cells of hPBMC",[6],~8 nM
same,"EC50 (read off the curve), pSTAT5 MFI in Treg cells of hPBMC",[7],~8 nM
same,"EC50 (read off the curve), pSTAT5 MFI in NK cells of hPBMC",[8],~3 nM
same,"EC50, pSTAT5 induction in iTreg cells (ELISA)",[9],0.31 nM
same,"EC50, pSTAT5 induction in HH T cells (ELISA)",[10],24.9 nM
same,"EC50, pSTAT5 in Treg cells of hPBMCs (flow cytometry)",[11],5.88 nM
same,"EC50, pSTAT5 in CD8 T cells of hPBMCs (flow cytometry)",[12],11.3 nM
same,"EC50, pSTAT5 in NK cells of hPBMCs (flow cytometry)",[12],1.53 nM
same,"EC50 (read off the curve), pSTAT5 MFI in NK cells of hPBMC",[13],~3 nM
same,"EC50 (read off the curve), pSTAT5 MFI in Treg cells of hPBMC",[14],~8 nM
same,"EC50 (read off the curve), pSTAT5 MFI in NK cells of hPBMC",[15],~3 nM
